The target of one experiment is F-MM2 MM2 (Homo sapiens) (UniProt Q8IYD8). The experiment can be described thus: FP. Particulars: cited from earlier work.
The target in experiment [1] is T1, RMI core complex (RMI1 OB2 domain with RMI2) (Homo sapiens, UniProt Q96E14+Q9H9A7).
T1 sequence (Q9H9A7 473-625 limits assumed): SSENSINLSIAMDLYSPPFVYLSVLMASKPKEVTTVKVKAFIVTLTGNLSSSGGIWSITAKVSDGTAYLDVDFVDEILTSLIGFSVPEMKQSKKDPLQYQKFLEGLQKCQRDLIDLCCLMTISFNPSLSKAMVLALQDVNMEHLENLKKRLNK
T1 sequence (Q96E14 1-147): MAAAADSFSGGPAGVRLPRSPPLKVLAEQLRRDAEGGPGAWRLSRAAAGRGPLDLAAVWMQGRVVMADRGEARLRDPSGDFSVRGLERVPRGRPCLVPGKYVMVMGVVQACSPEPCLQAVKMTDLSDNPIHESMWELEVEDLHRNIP
The experiment can be described thus: ITC. In kind it is binding.

Experiment [2] has as its target RMI core complex (OB2 domain of RMI1 and the entirety of RMI2) (UniProt Q96E14). The experiment can be described thus: fluorescence polarisation. For orientation: In fluorescence polarisation assays a small probe gives low polarisation when free and higher when bound to something large.
In experiment [3] the target is RMI core complex with a N-terminal 6X-His tagged RMI2 (UniProt Q96E14). The experiment can be described thus: AlphaScreen or HTRF.

As to “RMI core complex core complex (from UniProt Q9H9A7)”, the Kd in the experiment with F-MM2 MM2 (Homo sapiens) was less than 5 nM.
In experiment [1], `CCOC(=O)N1CCN(C(c2ccccn2)c2c(-c3ccccc3)n(O)c3ccccc23)CC1` (stereo not shown) [PIP-199] yielded an equilibrium dissociation constant (Kd) of 3400 ± 1000 nM.
As to MM2 peptide from FANCM (unlabeled), the IC50 in experiment [2] turned out to be 510 nM; in experiment [3], 180 nM.

A word on the Kd: it is the constant that tells how readily two partners part at equilibrium. What is called IC50 is the point on the concentration scale where inhibition reaches its midpoint.

The record behind these values is publication PMC5038921 (Journal of biomolecular screening, 2016).
